The values below come from patent US20180037654A1 (ADURO BIOTECH HOLDINGS EUROPE B V, published 2018).

In experiment [1] the target is T1, human CTLA-4 (Y166G and Y183G) expressed on CHO-K1.hCTLA-4 cells (human, UniProt P16410 36-223). Nature of the experiment: CELISA on CHO-K1.hCTLA-4 cells. How it is done:
Binding of the humanized antibodies to hCTLA-4 was studied in CELISA format. CHO-K1.hCTLA-4 cells were seeded in culture medium (DMEM-F12 (Gibco) with 10% Fetal Bovine Serum (Hyclone) and Pen/Strep (Gibco)) in tissue culture plates and cultured at 37° C., 5% CO₂ and 95% humidity until they were confluent. Subsequently, culture medium was removed and cells were incubated for 1 hour at 37° C., 5% CO₂ and 95% humidity with purified hCTLA-4 antibodies (10 μg/ml and dilutions thereof). Next, cells were washed with PBS/0.05% Tween (PBST) and incubated for 1 hour at 37° C., 5% CO₂ and 95% humidity with goat-anti-human IgG-HRP (Southern Biotechnology) or goat-anti-mouse IgG-HRP (Southern Biotechnology). Subsequently, cells were washed 3 times with PBST and anti-hCTLA-4 immunoreactivity was visualized with TMB Stabilized Chromagen (Invitrogen). Reactions were stopped with 0.5 M H₂SO₄ and absorbances were read at 450 and 610 nm.
Target sequence in this assay (P16410 36-223 Y201G/Y218G limits assumed): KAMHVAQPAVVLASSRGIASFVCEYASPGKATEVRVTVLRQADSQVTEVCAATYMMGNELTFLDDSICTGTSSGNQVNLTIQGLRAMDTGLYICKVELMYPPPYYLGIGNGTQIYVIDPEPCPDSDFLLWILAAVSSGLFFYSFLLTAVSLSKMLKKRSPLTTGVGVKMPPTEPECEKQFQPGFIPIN

The target of experiment [2] is T1, human CTLA-4 (Y166G and Y183G) …. Nature of the experiment: CELISA on CHO-K1.hCTLA-4 cells (Example 6). The procedure: (§1) In short, CELISA for hCTLA-4 binding was performed on CHO-K1.hCTLA-4 cells. […] Once the cells were confluent culture medium was removed and cells were incubated for 1 hour with the hCTL4.27 antibodies and control antibodies (10 μg/ml and dilutions thereof) at 37° C., 5% CO₂ and 95% humidity. […] Cells were then washed with PBST followed by addition of Streptavidin-HRP conjugate on the cells, which was incubated for 1 hour at 37° C., 5% CO₂ and 95% humidity. […] Reactions were stopped with 0.5 M H₂SO₄ and absorbances were read at 450 and 610 nm. IC50 values represent the concentration at which half of the inhibition is observed.

The target is the same in experiment [3]. Put plainly: CELISA, blockade of biotinylated hCD80/Fc binding to CHO-K1.hCTLA-4 cells. The procedure:
CHO-K1.hCTLA-4 cells were seeded in tissue culture plates and incubated at 37° C., 5% CO₂ and 95% humidity in culture medium. Once the cells were confluent culture medium was removed and cells were incubated for 1 hour with the humanized hCTL4.27 antibody variants (10 μg/ml and dilutions thereof) at 37° C., 5% CO₂ and 95% humidity. […] Cells were then washed with PBST followed by addition of Streptavidin-HRP conjugate on the cells, which was incubated for 1 hour at 37° C., 5% CO₂ and 95% humidity. […] Reactions were stopped with 0.5 M H₂SO₄ and absorbances were read at 450 and 610 nm. […] IC50 values represent the concentration at which half of the inhibition is observed.
Target sequence in this assay (P16410 36-223 Y201G/Y218G limits assumed): as above

Experiment [4] has the same target. Put plainly: CELISA, blockade of biotinylated hCD80/Fc binding to CHO-K1.hCTLA-4 cells (Example 6). How it is done: as §1
For experiment [5] the target is unchanged. Nature of the experiment: CELISA, blockade of biotinylated hCD86/Fc binding to CHO-K1.hCTLA-4 cells (Example 6). The procedure:
as §1

Experiment [6] addresses T2, human CTLA-4 (human, UniProt P16410 36-223).
T2 construct: Endogenous CTLA-4 of stimulated human CD3+ T cells (stained after fixation and permeabilization) and membrane CTLA-4 of the Jurkat reporter cells; also called hCTLA-4; CTLA-4 expressed on human CD3+ T cells
T2 sequence: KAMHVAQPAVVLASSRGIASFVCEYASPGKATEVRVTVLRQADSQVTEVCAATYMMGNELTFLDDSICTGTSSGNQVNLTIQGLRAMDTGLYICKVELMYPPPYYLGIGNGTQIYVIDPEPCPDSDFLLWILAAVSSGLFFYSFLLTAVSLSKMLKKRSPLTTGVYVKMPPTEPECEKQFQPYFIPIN
Put plainly: CELISA on CHO-K1 cells transiently transfected with human CTLA-4, panel Human. How it is done: (§2) The cDNAs encoding these constructs (SEQ ID NO: 41 and 43, respectively) were synthesized and subcloned into the pCI-Neo vector (GeneArt). […] To this end CHO-K1 cells were transiently transfected, using Lipofectamine 2000 (Invitrogen), with the pCI-Neo vectors expressing human CTLA-4 (hCTLA-4), mouse CTLA-4 (mCTLA-4) (SEQ ID NO: 45), Hum-Mou-CTLA-4, and Mou-Hum-CTLA-4 respectively. The transfected cells were cultured at 37° C., 5% CO₂ and 95% humidity in medium (DMEM-F12 (Gibco) with 5% New Born Calf serum (Biowest) and Pen/Strep (Gibco)) until confluent. Subsequently, cells were trypsinized and seeded in tissue culture plates and cultured at 37° C., 5% CO₂ and 95% humidity in culture medium until confluent. Then, culture medium was removed and cells were incubated for 1 hour at 37° C., 5% CO₂ and 95% humidity with hCTLA-4 antibodies. Next, cells were washed with PBS/0.05% Tween (PBST) and incubated for 1 hour at 37° C., 5% CO₂ and 95% humidity with 1:2,000 goat-anti-human IgG-HRP (Jackson Immunoresearch). After that, cells were washed 3 times with PBST and anti-CTLA-4 immunoreactivity was visualized with TMB Stabilized Chromagen (Invitrogen).

In experiment [7] the target is T3, Hum-Mou-CTLA-4 (human/mouse chimera).
T3 construct: Human residues on strand 1, 2, 5 and 6 and mouse residues on strand 3, 4, 7 and 8; transiently expressed on CHO-K1 cells; also called human-mouse variant; human-mouse exchange mutant
T3 chain: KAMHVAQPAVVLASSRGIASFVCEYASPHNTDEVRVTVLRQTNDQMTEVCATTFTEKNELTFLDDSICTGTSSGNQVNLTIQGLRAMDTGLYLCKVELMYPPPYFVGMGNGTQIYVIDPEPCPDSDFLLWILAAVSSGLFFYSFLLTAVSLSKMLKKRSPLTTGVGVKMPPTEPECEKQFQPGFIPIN
Put plainly: CELISA on CHO-K1 cells transiently transfected with Hum-Mou-CTLA-4, panel Human/Mouse. The procedure:
as §2

Experiment [8] deals with T4, Mou-Hum-CTLA-4 (mouse/human chimera).
T4 construct: Mouse residues on strand 1, 2, 5 and 6 and human residues on strand 3, 4, 7 and 8; transiently expressed on CHO-K1 cells; also called mouse-human variant; mouse-human exchange mutant
T4 chain: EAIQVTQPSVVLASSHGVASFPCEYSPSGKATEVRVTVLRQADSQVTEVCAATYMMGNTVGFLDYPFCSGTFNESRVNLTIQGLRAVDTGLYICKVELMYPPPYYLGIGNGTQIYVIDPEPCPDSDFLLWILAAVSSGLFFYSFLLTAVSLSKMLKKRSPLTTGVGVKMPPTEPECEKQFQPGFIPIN
Nature of the experiment: CELISA on CHO-K1 cells transiently transfected with Mou-Hum-CTLA-4, panel Mouse/Human. How it is done: as §2

Experiment [9] deals with T5, rhCTLA-4/Fc/6His (human).
T5 construct: Bought from R&D Systems
T5 sequence (chain, as listed by the source limits assumed): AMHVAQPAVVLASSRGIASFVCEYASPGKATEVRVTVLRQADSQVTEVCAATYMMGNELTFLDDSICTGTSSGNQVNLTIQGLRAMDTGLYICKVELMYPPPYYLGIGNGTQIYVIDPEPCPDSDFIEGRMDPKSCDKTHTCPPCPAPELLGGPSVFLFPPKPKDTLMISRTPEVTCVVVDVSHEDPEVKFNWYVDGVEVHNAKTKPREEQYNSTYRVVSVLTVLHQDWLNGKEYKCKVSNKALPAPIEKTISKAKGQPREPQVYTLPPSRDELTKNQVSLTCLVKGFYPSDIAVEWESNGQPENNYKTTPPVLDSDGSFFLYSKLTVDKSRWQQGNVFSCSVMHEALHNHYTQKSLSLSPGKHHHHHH
Put plainly: BLI (Octet RED96), antibody amine-coupled to biosensor, rhCTLA-4/Fc 2.5-40 nM, 1:1 global fit. How it is done:
hCTLA4.27 binding kinetics and equilibrium binding constants were profiled using […] on the Octet RED96 and compared to several antibodies known in the art. […] Amine-reactive biosensors were pre-wet by immersing them in wells containing 0.1M MES pH=5.5 for 10 minutes. The biosensors were then activated using a 0.1M NHS/0.4M EDC mixture for 5 minutes. Antibodies were coupled by immersing the biosensors in a solution of 2.5 or 12 ug/mL antibody in 0.1M MES for 7.5 minutes. The biosensor surface was quenched using a solution of IM ethanolamine for 5 minutes. Biosensors were equilibrated in Octet kinetics buffer (ForteBio) for 5 minutes. Association of rhCTLA-4/Fc (R&D Systems) was observed by placing the biosensors in wells containing various rhCTLA-4/Fc concentrations (2.5-40 nM) and monitoring interferometry for 15 minutes. Dissociation was measured after transfer of the biosensors into kinetics buffer and monitoring of the interferometry signal for 45 minutes. The assay was run with a plate temperature of 30° C. The observed on and off rates (kon and kdis) were fit using a 1:1 binding global fit model comprising all concentrations tested, and the equilibrium binding constant KD was calculated.
(In BLI a coated tip is dipped into the sample, and binding shifts an interference pattern.)

Experiment [10] concerns the target T1, human CTLA-4 (Y166G and Y183G) …. Nature of the experiment: CELISA, blockade of biotinylated hCD80/Fc binding to CHO-K1.hCTLA-4 cells (Example 6); blockade of hCD80/Fc binding to CHO-K1.hCTLA-4 cells. How it is done:
as §1

B1: hCTLA4.27A.C4 (antibody, V domains shown)
VH: QVQLQQPGAVLVRPGVSVKLSCKASGYSFTTYWMNWVKQRPGQGLEWIGMIHPSDSETSLNQAFKDKATLTIDKSSSTAYMQLSSPTSEDSAVYFCARMGRRNPYYFDYWGQGTTLTVSS
VL: DIQMTQSPVSLSVSVGETVTITCRPSENLYTNLAWYQQKQGKSPQLLVYGATNLADGVPSRFSGSGSGTQYSLRINSLQSEDFGTYYCQHLWGTPFTFGSGTKLELK
notes: Chimeric: mouse variable domains on human IgG4, kappa; also called hCTLA4.27A chimeric hIgG4
B1: the EC50 in experiment [1] stood at 0.033 nM; in [2] it was 0.053 nM. In addition, the 50% inhibitory concentration (IC50) in experiment [3] amounted to 1.61 nM; in experiment [4] it was 1.6 nM; in experiment [5], 1.21 nM. For the same molecule, the figures for the 50% effective concentration (EC50 (read off the curve)) in experiment [6] and in experiment [7] were roughly 0.06 nM and roughly 0.08 nM, respectively. In addition, the binding result in experiment [8] is “no binding (tested: log nM about 1.8 (about 60 nM))”.

B2: hCTLA4.27A (antibody, V domains shown)
VH: B1 VH
VL: B1 VL
notes: also called mouse hCTLA4.27A; parental antibody
Turning to B2, the concentration for a half-maximal effect (EC50) in experiment [1] was determined as 0.048 nM; in [2], 0.053 nM. For the same molecule, the IC50 in [3] is 2.17 nM; in experiment [5], 2.17 nM; in experiment [10], 2.71 nM. The molecule also registered a Kd in [9] of 2 nM. In [9], this molecule yielded a koff of 0.00045 s⁻¹. The kon in experiment [9] was found to be 500000 M⁻¹ s⁻¹.

Broadly, the EC50 is the midpoint of the concentration-response curve. A lower EC50 goes with a more potent agent. Usually IC50 stands for the concentration needed to halve the response being measured. As usually defined, the EC50 (read off the curve) is the concentration needed to bring the measured effect to its halfway point. Read a high EC50 (read off the curve) as lower potency in that assay. A word on the Kd: it is the equilibrium constant for the complex coming apart. Higher therefore signals lower affinity. A word on the koff: it is the rate constant with which the complex falls apart. The kon is the second-order rate constant of association. Read a high kon as fast association.
